± gives the standard error. Fewer inactive variants are shown than the library holds.
B1: glmS ribozyme (parent)
chain: AUAAAAGCGCCAGAACUACAGAAAUGUAGUUGACGAGGAGGAGGUUUAUCGAAUUUUCGGCGGAUGCCUCCAAA

Key:
Details in all cases: with glucosamine-6-phosphate
glucosamine-6-phosphate [1] = variants of: B1; assay: self-cleavage kobs at 640 uM GlcN6P; higher = faster cleavage; RNA array
Outline: (§1)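 Barcoded ribozyme variants were transcribed in situ on sequenced MiSeq chips by E. coli RNA polymerase. At 37 °C, a hybridised Cy3 probe tracked them while glucosamine-6-phosphate (40 μM to 10 mM) in HEPES/KCl/Mg(OAc)2 buffer flowed in and tiles were imaged over ~14 h. Per-tile medians of signals normalised to baseline and to non-cleaving reference variants were fit to one- or two-exponential decays, giving kobs. kcat and KM came from weighted Michaelis–Menten fits across concentrations.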

glucosamine-6-phosphate [2] = variants of: B1; assay: self-cleavage kobs at 2500 uM GlcN6P; higher = faster cleavage; RNA array
Outline: as §1

glucosamine-6-phosphate [3] = variants of: B1; assay: self-cleavage kobs at 10000 uM GlcN6P; higher = faster cleavage; RNA array
Outline: as §1

| Variant | self-cleavage kobs at 640 uM GlcN6P (glucosamine-6-phosphate [1]) [s⁻¹] | self-cleavage kobs at 2500 uM GlcN6P (glucosamine-6-phosphate [2]) [s⁻¹] | self-cleavage kobs at 10000 uM GlcN6P (glucosamine-6-phosphate [3]) [s⁻¹] |
| --- | --- | --- | --- |
| C34U A48U A64U | < 1e-05 | < 1e-05 |  |
| G32A G43A U57G | < 1e-05 |  |  |
| A39U A42C U49G | < 1e-05 |  |  |
| A39C U56C | 0.00018 ± 3.3e-05 | 0.000456 ± 0.00015 | 0.00101 ± 0.00021 |
| A33G G43U G59U A64G | < 1e-05 | < 1e-05 |  |
| G32U U55G C71U | 0.00014 ± 3.5e-05 |  | 0.000518 ± 0.00011 |
| G38A G40U G43A A52C | < 1e-05 |  |  |
| A39U A42C A53U C58U | < 1e-05 | < 1e-05 |  |
| A39G A64C U69G C71U | < 1e-05 | < 1e-05 |  |
| A36C G44U C61U C67U | < 1e-05 | < 1e-05 |  |
| G40A U45A C70U | 4.7e-05 ± 2.2e-05 | 7.49e-05 ± 2.1e-05 |  |
| G35A G40U G62U | < 1e-05 | < 1e-05 |  |
| G38C U45A C70G | < 1e-05 |  | < 1e-05 |
| G35C G37U A64G C68U | < 1e-05 |  |  |
| G40U U65G | 0.000417 ± 0.00014 | 0.00108 ± 0.00028 | 0.0019 ± 0.00044 |
| A39U A42C C50G | < 1e-05 |  | < 1e-05 |
| C34G U49A G66A | < 1e-05 |  |  |
| G40U U46C U55G | 0.000194 ± 6.6e-05 |  |  |
| G35A A36C C61G A64G | < 1e-05 |  |  |
| G37U A42C U56G | < 1e-05 |  |  |
| A36G U47G | < 1e-05 |  | < 1e-05 |
| A39C G51C U56C C70A | < 1e-05 |  |  |

| Variant | self-cleavage kobs at 640 uM GlcN6P (glucosamine-6-phosphate [1]) [s⁻¹] | self-cleavage kobs at 2500 uM GlcN6P (glucosamine-6-phosphate [2]) [s⁻¹] | self-cleavage kobs at 10000 uM GlcN6P (glucosamine-6-phosphate [3]) [s⁻¹] |
| --- | --- | --- | --- |
| A36U U55C G60U | < 1e-05 |  |  |
| G38U G43U U57C C70U | < 1e-05 |  |  |
| A33C A53G | 3.89e-05 ± 1.4e-05 | 7.39e-05 ± 1.3e-05 | 0.000235 ± 3.8e-05 |
| A42C U49G C58A | < 1e-05 | < 1e-05 |  |
| A39U G41U U47A A52C | < 1e-05 | < 1e-05 |  |
| G40U C50A G51A | < 1e-05 |  |  |
| G41C G63C A64U | < 1e-05 | < 1e-05 |  |
| A36C G37C U46A A48G C70G | < 1e-05 |  |  |
| G35A U46C U65A | < 1e-05 |  | < 1e-05 |
| G35A U46C G66A | < 1e-05 |  |  |
| G40C G43U U55C | < 1e-05 | < 1e-05 |  |
| G35C G44C U45C A48G | < 1e-05 | < 1e-05 |  |
| G38A G40C A42C A72U | < 1e-05 |  |  |
| G32U G59A A64U C67U | < 1e-05 | < 1e-05 |  |
| A39U G41U U56G | 6.4e-05 ± 1.9e-05 | 0.000106 ± 2.3e-05 |  |
| A33U C34U C70G | 0.00168 ± 0.00079 |  |  |
| G41A U54A | 0.000113 ± 2.9e-05 | 0.000311 ± 8.8e-05 | 0.000101 ± 2.1e-05 |
| G40A U57C C58A C61U | < 1e-05 |  |  |
| G32C G35U U46A C68G | < 1e-05 |  |  |
| G40A A42U A48U | < 1e-05 |  |  |
| A33C G35C U49G G59C | < 1e-05 | < 1e-05 |  |
| A39G G44A C58A | < 1e-05 |  |  |

| Variant | self-cleavage kobs at 640 uM GlcN6P (glucosamine-6-phosphate [1]) [s⁻¹] | self-cleavage kobs at 2500 uM GlcN6P (glucosamine-6-phosphate [2]) [s⁻¹] | self-cleavage kobs at 10000 uM GlcN6P (glucosamine-6-phosphate [3]) [s⁻¹] |
| --- | --- | --- | --- |
| C34U G44C G63U A64C | < 1e-05 |  |  |
| G40U C50A C67G | < 1e-05 |  |  |
| G32A U49C C50G | < 1e-05 |  |  |
| A36C G40U U54A G63U | < 1e-05 | < 1e-05 | < 1e-05 |
| G38A G62U G66C | < 1e-05 |  |  |
| G35C A52U C67U C68A | < 1e-05 |  |  |
| G35C G40A U46G G66A | < 1e-05 | < 1e-05 |  |
| G37C G59C | < 1e-05 | < 1e-05 | < 1e-05 |
| A36G G43U | < 1e-05 |  | < 1e-05 |
| G35U U47A | < 1e-05 | < 1e-05 |  |
| G35A G51A C58U | < 1e-05 |  |  |
| G38U G43U U65C C68G C71G | < 1e-05 |  |  |
| G40C G66A C70A | 9.02e-05 ± 2.4e-05 | 0.000246 ± 6.6e-05 | 0.000559 ± 0.0001 |
| G32A G40U A48U | < 1e-05 |  |  |
| G38U A64U C70G | 8.06e-05 ± 3.4e-05 |  |  |
| G35U G43U G60A | < 1e-05 | < 1e-05 |  |
| A39C G40U G44A U55C U65G | < 1e-05 | < 1e-05 |  |
| G38A G41C U54G C61A | < 1e-05 | < 1e-05 |  |
| C34G U57A | < 1e-05 |  | < 1e-05 |
| G35C G38A U69G | 0.00083 ± 0.00024 |  |  |
| G41C A48U C71U | < 1e-05 |  |  |

— the supplement of paper PMC7125110
